These results are taken from PMC11313003.

Test [1] concerns the target soluble trimeric-RBD form of the SARS-CoV-2 S protein (RBD aa 330-532, Wuhan strain, with a foldon t (SARS-CoV-2 (ancestral Wuhan strain) | T4 (as in 'T4 fibritin')) (UniProt P0DTC2)). The test can be described thus: SEC.
Test [2] shares this target. The test can be described thus: Western blot under non-reducing conditions.

For “soluble trimeric-RBD form of the SARS-CoV-2 S protein (RBD aa 330-532, Wuhan strain, with a foldon t (from UniProt P0DTC2 330-532) (domain or fragment)”, the stoichiometry N in test [1] and in test [2] was 3 each time.
